From article PMC5413942, “Gating of TonB-dependent transporters by substrate-specific forced remodelling” (Nature Communications, 2017)
Each block holds one binder with its values, some of them ahead of it. Where no end group is shown, it is not given here.

B3: TonB_(ΔTMD) (soluble TonB, residues 33–239, deletion of the N-terminal transmembrane helix) (domain or fragment)
chain: not shown
notes: Gly-Cys between the (His)6 tag and TonB, translated from the printed forward primer (GGCTGT); the cysteine is for AFM surface attachment; TonB of E. coli, cloned from the genome of E. coli BL21 (DE3), residues 33-239 (without the transmembrane domain, residues 1-32); the forward primer begins at HQVIELP; In the AFM experiments the engineered cysteine was coupled to NHS-PEG24-maleimide on the …

How the values were obtained:
Details in all cases: both partners purified
wild-type BtuB = molecular target: T1, wild-type BtuB (E. coli, UniProt P06129 21-614); test: single-molecule force spectroscopy (AFM); TonB construct on the AFM probe through NHS-PEG24-maleimide, TBDT (BtuB, its variants or FhuA) in E. coli polar lipid extract liposomes with its ligand adsorbed on mica; dwell 1 s, retraction 1,000 nm s^-1 unless stated otherwise; 25 mM Tris-HCl pH 8.0, 128 mM NaCl, 25 °C; 2 mM DTT added where stated
T1 construct: Cyanocobalamin was present at a 100-fold molar excess during reconstitution; also called vitamin B12 TBDT receptor of E. coli
T1 sequence (looked up): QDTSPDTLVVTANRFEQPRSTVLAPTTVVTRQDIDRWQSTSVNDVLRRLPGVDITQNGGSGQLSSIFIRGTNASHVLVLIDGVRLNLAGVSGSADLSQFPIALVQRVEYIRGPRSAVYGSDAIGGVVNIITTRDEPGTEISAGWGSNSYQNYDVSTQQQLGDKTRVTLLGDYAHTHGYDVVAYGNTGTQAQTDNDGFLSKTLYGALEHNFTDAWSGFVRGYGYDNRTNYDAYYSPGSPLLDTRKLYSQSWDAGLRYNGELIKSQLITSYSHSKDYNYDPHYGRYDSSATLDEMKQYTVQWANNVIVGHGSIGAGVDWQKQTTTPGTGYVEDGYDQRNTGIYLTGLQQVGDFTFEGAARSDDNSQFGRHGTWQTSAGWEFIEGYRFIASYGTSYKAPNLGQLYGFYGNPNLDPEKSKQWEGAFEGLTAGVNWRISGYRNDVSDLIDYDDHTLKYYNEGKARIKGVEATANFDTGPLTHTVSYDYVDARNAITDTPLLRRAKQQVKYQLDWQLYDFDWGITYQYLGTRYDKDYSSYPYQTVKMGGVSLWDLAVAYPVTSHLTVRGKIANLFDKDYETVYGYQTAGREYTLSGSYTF

[1] = molecular target: B3; test: MST; Alexa Fluor 488-labelled TB_(BtuB) peptide at constant concentration (500 nM mixed 1:1), TonB_(ΔTMD) titrated 7 nM-244 μM in 16 dilutions; 25 mM Tris-HCl pH 7.5, 128 mM NaCl, 5 min at room temperature; fit by the law of mass action
[2] = molecular target: T2, BtuB3A (BtuB I80A/L85A/L96A) (E. coli, UniProt P06129 21-614, I80A | L85A | L96A); test: single-molecule force spectroscopy (AFM); TonB construct on the AFM probe through NHS-PEG24-maleimide, TBDT (BtuB, its variants or FhuA) in E. coli polar lipid extract liposomes with its ligand adsorbed on mica; dwell 1 s, retraction 1,000 nm s^-1 unless stated otherwise; 25 mM Tris-HCl pH 8.0, 128 mM NaCl, 25 °C; 2 mM DTT added where stated
T2 sequence (looked up): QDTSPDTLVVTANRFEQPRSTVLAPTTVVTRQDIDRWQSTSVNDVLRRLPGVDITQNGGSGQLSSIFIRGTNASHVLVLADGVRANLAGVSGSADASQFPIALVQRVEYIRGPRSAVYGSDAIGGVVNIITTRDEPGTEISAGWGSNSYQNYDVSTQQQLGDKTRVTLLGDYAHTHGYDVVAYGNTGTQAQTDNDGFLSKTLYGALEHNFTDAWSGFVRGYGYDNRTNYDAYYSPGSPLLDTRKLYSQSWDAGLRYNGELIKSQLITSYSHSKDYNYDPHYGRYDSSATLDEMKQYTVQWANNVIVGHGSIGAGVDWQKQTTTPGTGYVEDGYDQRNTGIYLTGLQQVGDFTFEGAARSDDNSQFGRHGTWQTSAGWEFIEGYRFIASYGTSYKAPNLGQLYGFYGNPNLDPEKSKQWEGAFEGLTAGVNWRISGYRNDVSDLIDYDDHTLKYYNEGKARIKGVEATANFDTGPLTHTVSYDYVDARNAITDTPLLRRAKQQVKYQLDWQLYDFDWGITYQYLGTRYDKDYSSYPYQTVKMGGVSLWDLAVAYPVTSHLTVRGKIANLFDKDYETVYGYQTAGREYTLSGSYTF

[3] = molecular target: T3, BtuB XL_(loop) (BtuB V29C/V45C) (E. coli, UniProt P06129 21-614, V29C | V45C, disulfide bridge between C29 and C45 (reduced on addition of 2 mM DTT)); test: as above
T3 sequence (looked up): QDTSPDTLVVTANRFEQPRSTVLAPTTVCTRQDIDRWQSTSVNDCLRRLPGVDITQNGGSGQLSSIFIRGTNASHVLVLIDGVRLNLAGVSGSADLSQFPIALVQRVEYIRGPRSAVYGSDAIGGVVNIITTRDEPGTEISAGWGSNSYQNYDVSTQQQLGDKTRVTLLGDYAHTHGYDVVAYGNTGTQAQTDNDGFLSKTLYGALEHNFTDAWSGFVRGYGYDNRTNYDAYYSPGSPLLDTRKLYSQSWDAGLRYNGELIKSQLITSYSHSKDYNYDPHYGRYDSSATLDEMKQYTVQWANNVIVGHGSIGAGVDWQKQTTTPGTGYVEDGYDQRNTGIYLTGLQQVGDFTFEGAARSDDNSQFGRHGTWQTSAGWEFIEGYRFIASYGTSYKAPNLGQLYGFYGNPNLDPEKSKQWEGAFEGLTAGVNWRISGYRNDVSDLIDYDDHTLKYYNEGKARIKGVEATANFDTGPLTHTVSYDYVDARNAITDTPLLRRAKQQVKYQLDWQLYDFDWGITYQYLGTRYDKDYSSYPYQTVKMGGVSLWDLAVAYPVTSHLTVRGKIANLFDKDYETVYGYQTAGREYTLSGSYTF

- binding result (wild-type BtuB): binds
B1: TonBCTD (globular C-terminal domain of TonB without the linker) (domain or fragment)
chain: not shown
notes: Gly-Cys between the (His)6 tag and TonBCTD, translated from the printed forward primer (GGATGT); the cysteine is for AFM surface attachment; C-terminal domain of TonB of E. coli; also called TonB C-terminal domain; source: E. coli BL21 (DE3), pET-23a(+), purified (Ni Sepharose, size exclusion chromatography)

- Kd [1]: 9.4 ± 0.3 µM
B2: Ton box peptide from BtuB (TB_(BtuB)) labelled with Alexa Fluor 488 C5 maleimide (peptide)
peptide: PDTLVVTANRGSWSC(Alexa Fluor 488 C5 maleimide)
notes: also called TB_(BtuB)-Alexa fluor 488; Ton box_(BtuB) peptide; source: synthetic peptide

Binder: B3
- binding result [2]: binds
- binding result [3]: binds
